Results on 6 molecules are retold here after PMC12339401 (Nature Cell Biology, 2025).

Conditions in all cases: both partners purified
In one test the target is GST-WIPI3 (UniProt Q5MNZ6 1-344). As to the kind of experiment: microscopy-based bead assay; GST-tagged bait on Glutathione Sepharose 4B beads, GFP- or mCherry-tagged prey in solution, confocal imaging.
A further test concerns the target T1, mCherry-WIPI3 (UniProt Q5MNZ6 1-344).
T1 construct: 6xHis-TEV-mCherry tag; also called mCherry-tagged WIPI3; source: E. coli Rosetta pLysS, purified; not shown: mCherry, N-terminal, kept
The experiment in a line: microscopy-based bead assay; GFP-tagged bait on GFP-trap agarose beads, mCherry-tagged prey in solution, confocal imaging.

The next test concerns the target T2, mCherry-tagged WIPI1 (UniProt Q5MNZ9 1-446).
T2 construct: WIPI1; called purified WIPI1-4 in the results
T2 sequence (looked up): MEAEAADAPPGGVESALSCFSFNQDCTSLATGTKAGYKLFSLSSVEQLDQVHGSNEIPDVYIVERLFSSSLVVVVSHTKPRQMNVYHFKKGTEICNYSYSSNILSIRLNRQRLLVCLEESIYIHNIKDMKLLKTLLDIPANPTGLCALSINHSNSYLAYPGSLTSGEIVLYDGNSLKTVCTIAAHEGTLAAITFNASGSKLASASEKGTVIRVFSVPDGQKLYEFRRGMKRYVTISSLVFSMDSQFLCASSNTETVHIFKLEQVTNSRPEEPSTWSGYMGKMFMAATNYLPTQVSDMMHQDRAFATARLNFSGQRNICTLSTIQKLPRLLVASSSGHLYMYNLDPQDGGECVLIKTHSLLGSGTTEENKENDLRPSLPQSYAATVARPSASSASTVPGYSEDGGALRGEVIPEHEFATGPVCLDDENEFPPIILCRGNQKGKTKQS
As to the kind of experiment: microscopy-based bead assay; GST-tagged bait on Glutathione Sepharose 4B beads, GFP- or mCherry-tagged prey in solution, confocal imaging.

B1: mCherry-tagged ATG13 IDR (191–517 aa) (domain or fragment, UniProt O75143 191-517, looked up)
chain: INLAFMSTRQFERTPPIMGIIIDHFVDRPYPSSSPMHPCNYRTAGEDTGVIYPSVEDSQEVCTTSFSTSPPSQLSSSRLSYQPAALGVGSADLAYPVVFAAGLNATHPHQLMVPGKEGGVPLAPNQPVHGTQADQERLATCTPSDRTHCAATPSSSEDTETVSNSSEGRASPHDVLETIFVRKVGAFVNKPINQVTLTSLDIPFAMFAPKNLELEDTDPMVNPPDSPETESPLQGSLHSDGSSGGSSGNTHDDFVMIDFKPAFSKDDILPMDLGTFYREFQNPPQLSSLSIDIGAQSMAEDLDSLPEKLAVHEKNVREFDAFVETLQ
notes: also called mCh-IDR; source: E. coli Rosetta pLysS, purified; not shown: mCherry, N-terminal, kept
Consider B1, for which the binding result with GST-WIPI3 was “binds”.

B2: GFP-tagged ATG13 IDR (191–517 aa) (domain or fragment, UniProt O75143 191-517, looked up)
chain: B1 chain
notes: also called full IDR; full-length IDR; source: E. coli Rosetta pLysS, purified; not shown: EGFP, N-terminal, kept
As to B2, the binding result with mCherry-WIPI3 is “binds”.

B3: GFP-tagged ATG13 (206–230 aa) (peptide, UniProt O75143 206-230, looked up)
chain: PIMGIIIDHFVDRPYPSSSPMHPCN
notes: ATG13, residues 206-230; Addgene number by the order of printing; also called ATG13 IDR fragment residues 206–230; source: E. coli Rosetta pLysS, purified; not shown: EGFP, N-terminal, kept
B3: in the test with mCherry-WIPI3, the binding result is reported as “binds”.

B4: GFP-tagged ATG13 IDR Δ191–205 (205–517 aa) (domain or fragment, UniProt O75143 205-517, looked up)
chain: PPIMGIIIDHFVDRPYPSSSPMHPCNYRTAGEDTGVIYPSVEDSQEVCTTSFSTSPPSQLSSSRLSYQPAALGVGSADLAYPVVFAAGLNATHPHQLMVPGKEGGVPLAPNQPVHGTQADQERLATCTPSDRTHCAATPSSSEDTETVSNSSEGRASPHDVLETIFVRKVGAFVNKPINQVTLTSLDIPFAMFAPKNLELEDTDPMVNPPDSPETESPLQGSLHSDGSSGGSSGNTHDDFVMIDFKPAFSKDDILPMDLGTFYREFQNPPQLSSLSIDIGAQSMAEDLDSLPEKLAVHEKNVREFDAFVETLQ
notes: Addgene number by the order of printing; source: E. coli Rosetta pLysS, purified; not shown: EGFP, N-terminal, kept
Take B4: the binding result with mCherry-WIPI3 is “binds”.

B5: NIX(1–182)-GST (domain or fragment)
chain: not shown
notes: NIX (BNIP3L), human, cytosol-exposed domain, residues 1-182; transmembrane domain replaced by GST; also called NIX-GST; GST-tagged NIX; source: E. coli Rosetta pLysS, purified; not shown: GST, C-terminal, kept
B5: the binding result in the test with mCherry-tagged WIPI1 was “binds”.

B6: GFP-tagged ATG13 (191–230 aa) (peptide, UniProt O75143 191-230, looked up)
chain: INLAFMSTRQFERTPPIMGIIIDHFVDRPYPSSSPMHPCN
notes: as for B4
In the case of B6, in the test with mCherry-WIPI3, the binding result was “binds”.
